Experimental data reported in US20190330359A1.
pKd: −log10 of the molar value.

Biological target: TNFR2 (human TNFR2, SEQ ID NO: 1) (human) (UniProt P20333)
Assay: surface plasmon resonance (Pioneer SensiQ)

pKd: 9.21
Substance: Clone MAB726 (R&D Systems, Inc.) anti-TNFR2 antagonist monoclonal antibody
